Results published in article PMC4180932, “Reorganisation of the Salivary Mucin Network by Dietary Components: Insights from Green Tea Polyphenols” (PLOS One, 2014).

Legend:
[1] = target: CT5B, recombinant C-terminal construct of MUC5B (D4-B-C-CK domains, residues 4958-5765) (human); assay: SDS-PAGE; purified recombinant protein seen as monomer and dimer; gels of gradient fractions, silver stained (NT5B) or Coomassie stained (CT5B)
[2] = target: the molecule itself; assay: as above

Molecule | stoichiometry N [1] | stoichiometry N [2]
CT5B, recombinant C-terminal construct of MUC5B (D4-B-C-CK domains, residues 4958-5765) (domain or fragment) | 2 | –
NT5B, recombinant N-terminal construct of MUC5B (D1-D2-D′-D3 domains, residues 26-1304) (domain or fragment, human, UniProt Q9HC84 26-1304, looked up, MUC5B, human, D1-D2-D′-D3 domains, residues 26-1304; Purified as a mixture of monomer and dimer (75 and 150 kDa as printed); also called N-terminal MUC5B protein) QGPVEPSWENAGHTMDGGAPTSSPTRRVSFVPPVTVFPSLSPLNPAHNGRVCSTWGDFHYKTFDGDVFRFPGLCNYVFSEHCRAAYEDFNVQLRRGLVGSRPVVTRVVIKAQGLVLEASNGSVLINGQREELPYSRTGLLVEQSGDYIKVSIRLVLTFLWNGEDSALLELDPKYANQTCGLCGDFNGLPAFNEFYAHNARLTPLQFGNLQKLDGPTEQCPDPLPLPAGNCTDEEGICHRTLLGPAFAECHALVDSTAYLAACAQDLCRCPTCPCATFVEYSRQCAHAGGQPRNWRCPELCPRTCPLNMQHQECGSPCTDTCSNPQRAQLCEDHCVDGCFCPPGTVLDDITHSGCLPLGQCPCTHGGRTYSPGTSFNTTCSSCTCSGGLWQCQDLPCPGTCSVQGGAHISTYDEKLYDLHGDCSYVLSKKCADSSFTVLAELRKCGLTDNENCLKAVTLSLDGGDTAIRVQADGGVFLNSIYTQLPLSAANITLFTPSSFFIVVQTGLGLQLLVQLVPLMQVFVRLDPAHQGQMCGLCGNFNQNQADDFTALSGVVEATGAAFANTWKAQAACANARNSFEDPCSLSVENENYARHWCSRLTDPNSAFSRCHSIINPKPFHSNCMFDTCNCERSEDCLCAALSSYVHACAAKGVQLSDWRDGVCTKYMQNCPKSQRYAYVVDACQPTCRGLSEADVTCSVSFVPVDGCTCPAGTFLNDAGACVPAQECPCYAHGTVLAPGEVVHDEGAVCSCTGGKLSCLGASLQKSTGCAAPMVYLDCSNSSAGTPGAECLRSCHTLDVGCFSTHCVSGCVCPPGLVSDGSGGCIAEEDCPCVHNEATYKPGETIRVDCNTCTCRNRRWECSHRLCLGTCVAYGDGHFITFDGDRYSFEGSCEYILAQDYCGDNTTHGTFRIVTENIPCGTTGTTCSKAIKLFVESYELILQEGTFKAVARGPGGDPPYKIRYMGIFLVIETHGMAVSWDRKTSVFIRLHQDYKGRVCGLCGNFDDNAINDFATRSRSVVGDALEFGNSWKLSPSCPDALAPKDPCTANPFRKSWAQKQCSILHGPTFAACRSQVDSTKYYEACVNDACACDSGGDCECFCTAVAAYAQACHDAGLCVSWRTPDTCPLFCDFYNPHGGCEWHYQPCGAPCLKTCRNPSGHCLVDLPGLEGCYPKCPPSQPFFNEDQMKCVAQCGCYDKDGNYYDVGARVPTAENCQSCNCTPSGIQCAHSLEACTCTYEDRTYSYQDVIYNTTDGLGACLIAICGSNGTIIRKAVACPG | – | 2
